From the supplement of paper PMC9112550, “Optimization of the antimicrobial peptide Bac7 by deep mutational scanning” (BMC Biology, 2022) come the findings set out here.

For this data set, the system named is Escherichia coli TOP10. Kind of data set: shrunken log2 fold change of peptide-encoding DNA abundance (4.5 h post-induction vs induction); higher = less antimicrobial activity (less host growth inhibition). The settings on record: time post-induction: 4.5 h; library: site-saturation at positions 5, 18, 19, 20.
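Also: peptides expressed intracellularly from a pBAD plasmid library in pooled LB shake-flask culture, induced with 0.3% L-arabinose, DNA abundance read by NGS, three biological replicates, DESeq2 with apeglm shrinkage.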

With RRIRKRPPRLPRPRPRPHKPPRP, the “shrunken log2 fold change” value is -0.0045.

With RRIRGRPPRLPRPRPRPFWKPRP, the “shrunken log2 fold change” value was found to be 0.0889. Then RRIRWRPPRLPRPRPRPHFEPRP, with -0.165; and RRIRARPPRLPRPRPRPWFYPRP, with 0.0676; and RRIRGRPPRLPRPRPRPDWAPRP, with 1.22.

For RRIRKRPPRLPRPRPRPRFFPRP, the “shrunken log2 fold change” value worked out at 0.282. Then RRIRSRPPRLPRPRPRPFMYPRP, with -0.513. Under RRIRSRPPRLPRPRPRPCMPPRP stands -0.375; under RRIRPRPPRLPRPRPRPYVEPRP, -0.415. With RRIRTRPPRLPRPRPRPYAVPRP, the “shrunken log2 fold change” value was -0.331.

In the case of RRIRTRPPRLPRPRPRPNSGPRP, the “shrunken log2 fold change” value worked out at 0.00712. Under RRIRFRPPRLPRPRPRPPQHPRP stands 0.108; under RRIRKRPPRLPRPRPRPREQPRP, 0.609. Under RRIRWRPPRLPRPRPRPVKSPRP stands 0.0342; under RRIRGRPPRLPRPRPRPHLCPRP, 0.58; under RRIRIRPPRLPRPRPRPKWCPRP, -0.317. For the sequence RRIRERPPRLPRPRPRPIGTPRP, the “shrunken log2 fold change” value is -0.976. As for RRIRYRPPRLPRPRPRPPMLPRP, the “shrunken log2 fold change” value was -0.492. Then RRIRKRPPRLPRPRPRPNMVPRP, with 0.114. As for RRIRGRPPRLPRPRPRPEEAPRP, the “shrunken log2 fold change” value amounted to 2.32. Then RRIRSRPPRLPRPRPRPWGQPRP, with 0.0926; and RRIRARPPRLPRPRPRPQRTPRP, with 0.11. Under RRIRCRPPRLPRPRPRPQVVPRP stands -0.266; under RRIRDRPPRLPRPRPRPQMHPRP, 0.156; under RRIRFRPPRLPRPRPRPRINPRP, -0.314. Then RRIRERPPRLPRPRPRPQWVPRP, with 0.0428. For the sequence RRIRMRPPRLPRPRPRPYTDPRP, the “shrunken log2 fold change” value is -0.161. In the case of RRIRERPPRLPRPRPRPAQEPRP, the “shrunken log2 fold change” value came to 0.597. Under RRIRMRPPRLPRPRPRPPCNPRP stands 0.0147; under RRIRQRPPRLPRPRPRPIQKPRP, -0.0187. RRIRARPPRLPRPRPRPAPHPRP: the “shrunken log2 fold change” value is 0.814.

On to RRIRSRPPRLPRPRPRPCPDPRP, for which the “shrunken log2 fold change” value is -0.388.

Consider RRIRVRPPRLPRPRPRPKTVPRP, for which the “shrunken log2 fold change” value is -0.012.

On to RRIRQRPPRLPRPRPRPRVYPRP, for which the “shrunken log2 fold change” value was 0.0498. Then RRIRPRPPRLPRPRPRPPVVPRP, with 0.649; and RRIRQRPPRLPRPRPRPYNDPRP, with 0.00408. RRIRIRPPRLPRPRPRPIYCPRP: the “shrunken log2 fold change” value is -0.0326.

Consider RRIRTRPPRLPRPRPRPDCPPRP, for which the “shrunken log2 fold change” value is -0.245.

For RRIRERPPRLPRPRPRPGVLPRP, the “shrunken log2 fold change” value was -0.177. For RRIRPRPPRLPRPRPRPICMPRP, the “shrunken log2 fold change” value is -0.343.

As for RRIRRRPPRLPRPRPRPEIGPRP, the “shrunken log2 fold change” value was found to be 0.244. Then RRIRGRPPRLPRPRPRPLQVPRP, with 0.458; and RRIRCRPPRLPRPRPRPDRSPRP, with 0.208. Then RRIRQRPPRLPRPRPRPQSHPRP, with -0.309; and RRIRNRPPRLPRPRPRPQRAPRP, with 0.0993. Under RRIRTRPPRLPRPRPRPHCPPRP stands -0.605; under RRIRKRPPRLPRPRPRPYRSPRP, 0.0428. For RRIRLRPPRLPRPRPRPQSMPRP, the “shrunken log2 fold change” value is -0.197. Then RRIRTRPPRLPRPRPRPCDNPRP, with -0.267. Under RRIRERPPRLPRPRPRPLIWPRP stands -0.364; under RRIRQRPPRLPRPRPRPDEAPRP, -0.0116. Take RRIRVRPPRLPRPRPRPAVFPRP: the “shrunken log2 fold change” value came to 0.265. RRIRFRPPRLPRPRPRPVQNPRP: the “shrunken log2 fold change” value amounted to 0.0293.

Take RRIRTRPPRLPRPRPRPDAEPRP: the “shrunken log2 fold change” value came out at 0.117.

For RRIRVRPPRLPRPRPRPTPPPRP, the “shrunken log2 fold change” value worked out at 0.406. Under RRIRCRPPRLPRPRPRPFGVPRP stands -0.0152. Turning to RRIRGRPPRLPRPRPRPHTWPRP, the “shrunken log2 fold change” value was -0.0293. On to RRIRKRPPRLPRPRPRPIEDPRP, for which the “shrunken log2 fold change” value was -0.0345. RRIRSRPPRLPRPRPRPINDPRP: the “shrunken log2 fold change” value is -0.113. Then RRIRDRPPRLPRPRPRPFEEPRP, with 0.0467. Then RRIRSRPPRLPRPRPRPQKIPRP, with -0.53; and RRIRLRPPRLPRPRPRPRKLPRP, with -0.0264; and RRIRQRPPRLPRPRPRPGGIPRP, with 0.0484. Then RRIRRRPPRLPRPRPRPMCLPRP, with 0.0511.

Regarding RRIRDRPPRLPRPRPRPQHRPRP, the “shrunken log2 fold change” value is -0.198. With RRIRMRPPRLPRPRPRPGIHPRP, the “shrunken log2 fold change” value is 0.142.

In the case of RRIRLRPPRLPRPRPRPVYIPRP, the “shrunken log2 fold change” value is -0.258. Then RRIRKRPPRLPRPRPRPICVPRP, with 0.0188; and RRIRRRPPRLPRPRPRPFELPRP, with -0.249. Under RRIRSRPPRLPRPRPRPYNLPRP stands -0.573; under RRIRYRPPRLPRPRPRPQEAPRP, -0.029; under RRIRYRPPRLPRPRPRPVVAPRP, -0.32.

With RRIRLRPPRLPRPRPRPNRRPRP, the “shrunken log2 fold change” value is 0.0365.

As for RRIRQRPPRLPRPRPRPHYSPRP, the “shrunken log2 fold change” value was -0.0998. Then RRIRTRPPRLPRPRPRPVNFPRP, with -0.484; and RRIRTRPPRLPRPRPRPGTNPRP, with -0.0901; and RRIRERPPRLPRPRPRPGPNPRP, with -0.106. As for RRIRRRPPRLPRPRPRPEKDPRP, the “shrunken log2 fold change” value was determined as 0.0399. Then RRIRKRPPRLPRPRPRPCHQPRP, with 0.124.

As to RRIRKRPPRLPRPRPRPYGSPRP, the “shrunken log2 fold change” value is -0.224. Then RRIRLRPPRLPRPRPRPFSRPRP, with -0.199; and RRIRSRPPRLPRPRPRPMSQPRP, with -0.0303. Then RRIRYRPPRLPRPRPRPETPPRP, with 0.156; and RRIRYRPPRLPRPRPRPCYCPRP, with -0.185. Then RRIRMRPPRLPRPRPRPHDPPRP, with 0.000689; and RRIRERPPRLPRPRPRPFQMPRP, with -0.112. With RRIRMRPPRLPRPRPRPRCGPRP, the “shrunken log2 fold change” value is 0.733.

Consider RRIRDRPPRLPRPRPRPDYLPRP, for which the “shrunken log2 fold change” value stood at 0.0544. Under RRIRPRPPRLPRPRPRPEQNPRP stands -0.199.

Turning to RRIRWRPPRLPRPRPRPEIFPRP, the “shrunken log2 fold change” value stood at 0.0932.

In the case of RRIRHRPPRLPRPRPRPVFLPRP, the “shrunken log2 fold change” value was -0.582. Then RRIRKRPPRLPRPRPRPGYVPRP, with -0.0738; and RRIRFRPPRLPRPRPRPYGKPRP, with -0.514.

For RRIRERPPRLPRPRPRPQIRPRP, the “shrunken log2 fold change” value turned out to be 0.0242. For the sequence RRIRRRPPRLPRPRPRPLMIPRP, the “shrunken log2 fold change” value was -0.258.

On to RRIRCRPPRLPRPRPRPMCEPRP, for which the “shrunken log2 fold change” value is -0.0476. Then RRIRMRPPRLPRPRPRPVSKPRP, with 0.0965; and RRIRNRPPRLPRPRPRPYMPPRP, with -0.0173. Then RRIRIRPPRLPRPRPRPQDNPRP, with -0.954.

RRIRCRPPRLPRPRPRPASRPRP: the “shrunken log2 fold change” value was determined as 0.096. In the case of RRIRWRPPRLPRPRPRPLDEPRP, the “shrunken log2 fold change” value is 0.53. Under RRIRGRPPRLPRPRPRPRHTPRP stands 0.7; under RRIRKRPPRLPRPRPRPRYTPRP, -0.113. Under RRIRMRPPRLPRPRPRPCCVPRP stands 0.166. Under RRIRARPPRLPRPRPRPYNRPRP stands -0.186. For the sequence RRIRNRPPRLPRPRPRPAQHPRP, the “shrunken log2 fold change” value came out at 0.00182. Then RRIRVRPPRLPRPRPRPPFPPRP, with 0.369; and RRIRSRPPRLPRPRPRPACNPRP, with -0.285. Then RRIRHRPPRLPRPRPRPHIAPRP, with -0.0808; and RRIRQRPPRLPRPRPRPMFFPRP, with -0.0364. Then RRIRSRPPRLPRPRPRPDFWPRP, with 0.506; and RRIRRRPPRLPRPRPRPVRNPRP, with 0.146; and RRIRTRPPRLPRPRPRPAVFPRP, with 0.271.

As to RRIRKRPPRLPRPRPRPVDCPRP, the “shrunken log2 fold change” value was -0.248. Take RRIRGRPPRLPRPRPRPCMDPRP: the “shrunken log2 fold change” value was found to be 0.714.

RRIRHRPPRLPRPRPRPGYSPRP: the “shrunken log2 fold change” value is 0.0976.

For the sequence RRIRCRPPRLPRPRPRPSFPPRP, the “shrunken log2 fold change” value is -0.608. As for RRIRGRPPRLPRPRPRPYRCPRP, the “shrunken log2 fold change” value was -0.00655. Under RRIRFRPPRLPRPRPRPMFAPRP stands 0.0307; under RRIRARPPRLPRPRPRPRDRPRP, 0.706.

As for RRIRNRPPRLPRPRPRPVIRPRP, the “shrunken log2 fold change” value was -0.164. Then RRIRDRPPRLPRPRPRPINLPRP, with -0.129; and RRIRWRPPRLPRPRPRPDQSPRP, with 0.0237. Then RRIRIRPPRLPRPRPRPAIHPRP, with -0.475; and RRIRYRPPRLPRPRPRPFKHPRP, with -0.349.
